Test results reported in article PMC7617692, “Structural evolution of fibril polymorphs during amyloid assembly” (Cell, 2023).
Bridge positions count the residues as written; N and C are the ends. Ends that are not written are not given here.

Target: the molecule itself
Test: cryo-EM structure; fibrils grown quiescently in glass vials, 30 uM peptide, 20 mM ammonium acetate pH 6.8, room temperature; sampled at 3 weeks (lag phase), undiluted; helical reconstruction; repeated with a second reaction

B1: human islet amyloid polypeptide S20G variant (IAPP-S20G) (peptide)
chain: KCNTATCATQRLANFLVHSGNNFGAILSSTNVGSNTY-NH2
modifications: disulfide 2-7; N-terminus assumed
SMILES: CC[C@H](C)[C@H](NC(=O)[C@H](C)NC(=O)CNC(=O)[C@H](Cc1ccccc1)NC(=O)[C@H](CC(N)=O)NC(=O)[C@H](CC(N)=O)NC(=O)CNC(=O)[C@H](CO)NC(=O)[C@H](Cc1c[nH]cn1)NC(=O)[C@@H](NC(=O)[C@H](CC(C)C)NC(=O)[C@H](Cc1ccccc1)NC(=O)[C@H](CC(N)=O)NC(=O)[C@H](C)NC(=O)[C@H](CC(C)C)NC(=O)[C@H](CCCNC(=N)N)NC(=O)[C@H](CCC(N)=O)NC(=O)[C@@H](NC(=O)[C@H](C)NC(=O)[C@@H]1CSSC[C@H](NC(=O)[C@@H](N)CCCCN)C(=O)N[C@@H](CC(N)=O)C(=O)N[C@@H]([C@@H](C)O)C(=O)N[C@@H](C)C(=O)N[C@@H]([C@@H](C)O)C(=O)N1)[C@@H](C)O)C(C)C)C(=O)N[C@@H](CC(C)C)C(=O)N[C@@H](CO)C(=O)N[C@@H](CO)C(=O)N[C@H](C(=O)N[C@@H](CC(N)=O)C(=O)N[C@H](C(=O)NCC(=O)N[C@@H](CO)C(=O)N[C@@H](CC(N)=O)C(=O)N[C@H](C(=O)N[C@@H](Cc1ccc(O)cc1)C(N)=O)[C@@H](C)O)C(C)C)[C@@H](C)O
notes: islet amyloid polypeptide (IAPP, amylin), human, 37-residue hormone, familial early-onset T2D variant S20G; Assembles into amyloid fibrils of two, three or four protofilaments; the number of chains in a fibril is open-ended; Purity >95% by analytical HPLC, mass 3873.3 Da; also called hIAPP-S20G; S20G-IAPP; source: synthetic peptide (Fmoc solid phase, oxidised, reverse-phase HPLC purified)
Q: Does B1 bind?
A: binds
